According to patent publication US20030203372A1, “Analysis method” (priority 2000, published 2003):

Assays:
[1] = tested on: primary human cell cultures (11 cell types); experiment: Custom gene array, 11 human cell types in normoxia or hypoxia for 6 hr and 18 hr; assay type: cell-based;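 as to mRNA expression level, #1 HY 18 hr: cell type #1 is adipocyte from subcutaneous adult adipose tissue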;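 as to mRNA expression level, #1 HY 6 hr: cell type #1 is adipocyte from subcutaneous adult adipose tissue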;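 as to mRNA expression level, #1 NO: cell type #1 is adipocyte from subcutaneous adult adipose tissue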;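 as to mRNA expression level, #2 HY 18 hr: cell type #2 is fetal cardiomyocyte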;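 as to mRNA expression level, #2 HY 6 hr: cell type #2 is fetal cardiomyocyte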;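 as to mRNA expression level, #2 NO: cell type #2 is fetal cardiomyocyte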;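 as to mRNA expression level, #3 HY 6 hr: cell type #3 is human umbilical vein endothelial cells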;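 as to mRNA expression level, #3 NO: cell type #3 is human umbilical vein endothelial cells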;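 as to mRNA expression level, #4 HY 18 hr: cell type #4 is adult dermal fibroblast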;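 as to mRNA expression level, #4 HY 6 hr: cell type #4 is adult dermal fibroblast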;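 as to mRNA expression level, #4 NO: cell type #4 is adult dermal fibroblast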;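 as to mRNA expression level, #5 HY 6 hr: cell type #5 is adult hepatocyte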;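 as to mRNA expression level, #5 NO: cell type #5 is adult hepatocyte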;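 as to mRNA expression level, #6 HY 6 hr: cell type #6 is blood-derived macrophage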;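 as to mRNA expression level, #6 NO: cell type #6 is blood-derived macrophage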
How it was run: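 Eleven primary, unmodified human cell types (one non-primary neuronal type) held in normoxia or hypoxia for 6 hr and 18 hr. RNA hybridised to duplicate or triplicate custom arrays, normalised per array to reference genes. Expression given relative to each gene's median across all conditions.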

[2] = tested on: human breast and ovary tumors; experiment: Custom gene array, breast and ovary tumors versus normal adjacent tissue; conditions: Table 19; for gene expression level on custom gene array, Breast nor H / gene expression level on custom gene array, Breast nor K / gene expression level on custom gene array, Ovary nor E / gene expression level on custom gene array, Ovary nor F / gene expression level on custom gene array, Ovary nor G: normal adjacent tissue; for gene expression level on custom gene array, Breast nor H / gene expression level on custom gene array, Breast tum H: patient H; for gene expression level on custom gene array, Breast nor K / gene expression level on custom gene array, Breast tum K: patient K; for gene expression level on custom gene array, Breast tum H / gene expression level on custom gene array, Breast tum K / gene expression level on custom gene array, Ovary tum E / gene expression level on custom gene array, Ovary tum F / gene expression level on custom gene array, Ovary tum G: tumor tissue; for gene expression level on custom gene array, Ovary nor E / gene expression level on custom gene array, Ovary tum E: patient E; for gene expression level on custom gene array, Ovary nor F / gene expression level on custom gene array, Ovary tum F: patient F; for gene expression level on custom gene array, Ovary nor G / gene expression level on custom gene array, Ovary tum G: patient G
How it was run: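 Tumor versus normal adjacent tissue from 5 patients (ovarian adenocarcinomas, invasive ductal breast carcinomas); for one patient, normal ovary came from a separate age-matched individual. Per-chip normalisation for labelling/hybridization, then per-gene values expressed relative to the gene's median across all samples; differences inferred within each patient.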

[3] = tested on: human macrophages; experiment: Custom gene array, macrophages with no cytokines, IL-10 or LPS + IFN, in normoxia and hypoxia; assay type: cell-based; conditions: for mRNA EXPRESSION (experimental condition) #1: #1 no cytokines/normoxia; for mRNA EXPRESSION (experimental condition) #2: #2 no cytokines/hypoxia; for mRNA EXPRESSION (experimental condition) #3: #3 IL-10/normoxia; for mRNA EXPRESSION (experimental condition) #4: #4 IL-10/hypoxia; for mRNA EXPRESSION (experimental condition) #5: #5 LPS/IFN/normoxia; for mRNA EXPRESSION (experimental condition) #6: #6 LPS/IFN/hypoxia
How it was run: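 Cultured macrophages were left untreated or given IL-10 or LPS + IFN, each at 100 ng/ml final, for 6 hr under normoxia or hypoxia (0.1% oxygen). Six conditions in total.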

[4] = Table 16, referenced to median of the gene over 6 conditions
[5] = Table 15, referenced to the median value of that gene throughout all 6 conditions

B1: p1E4 (nucleic acid, listed as Homo Sapiens)
DNA: AATTATATATTACATGTTTATTAAGAGCACAACTTTTATGTAAAATTTACATTTAATGAAAAAAATCAAAAATATTTACAAAATCTTGGAAGACAGATGTGCATTGTTCTAATTACAATCCAAAGTAGTAAATAACAATCCTTTAAAACTCACATTTATTAGAGTTGTGTTTACAAATTCTTGGTTAAAGAGGCAGCTACAAAGTTTACCACTATATATAAGCAAGAACCAGCTTGCTAGGTACATTTCCCATTGAAAATCTACTGGTCTCTTTTACACCATTAGTGGATTTTTAAATGGAAAAAAAAAATCAATATAAACTCATATGGCTTCAAAATTGTA
modifications: EST array clone
mRNA expression level, #1 HY 6 hr ([1]; cell type #1, hypoxia 6 hr): 0.51 | mRNA expression level, #1 HY 18 hr ([1]; cell type #1, hypoxia 18 hr): 0.79 | mRNA expression level, #1 NO ([1]; cell type #1, normoxia): 0.65 | mRNA expression level, #2 HY 6 hr ([1]; cell type #2, hypoxia 6 hr): 1.24 | mRNA expression level, #2 HY 18 hr ([1]; cell type #2, hypoxia 18 hr): 1.18 | mRNA expression level, #2 NO ([1]; cell type #2, normoxia): 1.06 | mRNA expression level, #3 HY 6 hr ([1]; cell type #3, hypoxia 6 hr): 1.57 | mRNA expression level, #3 HY 18 hr ([1]; cell type #3, hypoxia 18 hr): 1.70 | mRNA expression level, #3 NO ([1]; cell type #3, normoxia): 1.59 | mRNA expression level, #4 HY 6 hr ([1]; cell type #4, hypoxia 6 hr): 0.76 | mRNA expression level, #4 HY 18 hr ([1]; cell type #4, hypoxia 18 hr): 0.91 | mRNA expression level, #4 NO ([1]; cell type #4, normoxia): 0.80 | mRNA expression level, #5 HY 6 hr ([1]; cell type #5, hypoxia 6 hr): 0.39 | mRNA expression level, #5 NO ([1]; cell type #5, normoxia): 0.34 | mRNA expression level, #6 HY 6 hr ([1]; cell type #6, hypoxia 6 hr): 1.13 | #6 HY 18 hr (mRNA expression level) ([1]; cell type #6, hypoxia 18 hr): 1.21 | mRNA expression level, #6 NO ([1]; cell type #6, normoxia): 0.97 | #7 HY 6 hr (mRNA expression level) ([1]; cell type #7, hypoxia 6 hr): 1.17 | #7 HY 18 hr (mRNA expression level) ([1]; cell type #7, hypoxia 18 hr): 0.82 | #7 NO (mRNA expression level) ([1]; cell type #7, normoxia): 1.65 | #8 HY 6 hr (mRNA expression level) ([1]; cell type #8, hypoxia 6 hr): 1.28 | #8 HY 18 hr (mRNA expression level) ([1]; cell type #8, hypoxia 18 hr): 1.71 | #8 NO (mRNA expression level) ([1]; cell type #8, normoxia): 0.74 | #9 HY 6 hr (mRNA expression level) ([1]; cell type #9, hypoxia 6 hr): 0.97 | #9 HY 18 hr (mRNA expression level) ([1]; cell type #9, hypoxia 18 hr): 0.93 | #9 NO (mRNA expression level) ([1]; cell type #9, normoxia): 0.95 | #10 HY 6 hr (mRNA expression level) ([1]; cell type #10, hypoxia 6 hr): 1.35 | #10 HY 18 hr (mRNA expression level) ([1]; cell type #10, hypoxia 18 hr): 1.44 | #10 NO (mRNA expression level) ([1]; cell type #10, normoxia): 0.78 | #11 HY 6 hr (mRNA expression level) ([1]; cell type #11, hypoxia 6 hr): 1.48 | #11 HY 18 hr (mRNA expression level) ([1]; cell type #11, hypoxia 18 hr): 1.35 | #11 NO (mRNA expression level) ([1]; cell type #11, normoxia): 1.30 | HIGHEST FOLD CHANGE IN HYPOXIA (hr hypoxia + cell type) ([1]; hypoxia/normoxia induction ratio, 18 hr monocyte): 2.31 (18 hr monocyte) fold | gene expression level on custom gene array, Breast nor H [2]: 1.00 | gene expression level on custom gene array, Breast nor K [2]: 1.06 | gene expression level on custom gene array, Breast tum H [2]: 0.69 | gene expression level on custom gene array, Breast tum K [2]: 0.46 | gene expression level on custom gene array, Ovary nor E [2]: 1.30 | gene expression level on custom gene array, Ovary nor F [2]: 0.88 | gene expression level on custom gene array, Ovary nor G [2]: 0.70 | gene expression level on custom gene array, Ovary tum E [2]: 1.67 | gene expression level on custom gene array, Ovary tum F [2]: 0.65 | gene expression level on custom gene array, Ovary tum G [2]: 0.17 | mRNA EXPRESSION (experimental condition) #1 [3, 4]: 1.22 | mRNA EXPRESSION (experimental condition) #2 [3, 4]: 1.13 | mRNA EXPRESSION (experimental condition) #3 [3, 4]: 1.09 | mRNA EXPRESSION (experimental condition) #4 [3, 4]: 0.96 | mRNA EXPRESSION (experimental condition) #5 [3, 4]: 0.40 | mRNA EXPRESSION (experimental condition) #6 [3, 4]: 0.40

B2: p1F24 (nucleic acid, listed as Homo Sapiens)
DNA: ATGAACTGGCATCTCCCCCTCTTCCTCTTGGCCTCTGTGACGCTGCCTTCCATCTGCTCCCACTTCAATCCTCTGTCTCTCGAGGAACTAGGCTCCAACACGGGGATCCAGGTTTTCAATCAGATTGTGAAGTCGAGGCCTCATGACAACATCGTGATCTCTCCCCATGGGATTGCGTCGGTCCTGGGGATGCTTCAGCTGGGGGCGGACGGCAGGACCAAGAAGCAGCTCGCCATGGTGATGAGATACGGCGTAAATGGAGTTGGTAAAATATTAAAGAAGATCAACAAGGCCATCGTCTCCAAGAAGAATAAAGACATTGTGACAGTGGCTAACGCCGTGTTTGTTAAGAATGCCTCTGAAATTGAAGTGCCTTTTGTTACAAGGAACAAAGATGTGTTCCAGTGTGAGGTCCGGAATGTGAACTTTGAGGATCCAGCCTCTGCCTGTGATTCCATCAATGCATGGGTTAAAAACGAAACCAGGGATATGATTGACAATCTGCTGTCCCCAGATCTTATTGATGGTGTGCTCACCAGACTGGTCCTCGTCAACGCAGTGTATTTCAAGGGTCTGTGGAAATCACGGTTCCAACCCGAGAACACAAAGAAACGCACTTTCGTGGCAGCCGACGGGAAATCCTATCAAGTGCCAATGCTGGCCCAGCTCTCCGTGTTCCGGTGTGGGTCGACAAGTGCCCCCAATGATTTATGGTACAACTTCATTGAACTGCCCTACCACGGGGAAAGCATCAGCATGCTGATTGCACTGCCGACTGAGAGCTCCACTCCGCTGTCTGCCATCATCCCACACATCAGCACCAAGACCATAGACAGCTGGATGAGCATCATGGTCCCCAAGAGGGTGCAGGTGATCCTGCCCAAGTTCACAGCTGTAGCACAAACAGATTTGAAGGAGCCGCTGAAAGTTCTTGGCATTACTGACATGTTTGATTCATCAAAGGCAAATTTTGCAAAAATAACAAGGTCAGAAAACCTCCATGTTTCTCATATCTTGCAAAAAGCAAAAATTGAAGTCAGTGAAGATGGAACCAAAGCTTCAGCAGCAACAACTGCAATTCTCATTGCAAGATCATCGCCTCCCTGGTTTATAGTAGACAGACCTTTTCTGTTTTTCATCCGACATAATCCTACAGGTGCTGTGTTATTCATGGGGCAGATAAACAAACCC
mRNA expression level ([1]; cell type #1, HY (hypoxia) 6 hr): 0.70 | mRNA expression level ([1]; cell type #1, HY (hypoxia) 18 hr): 1.01 | mRNA expression level ([1]; cell type #1, NO (normoxia)): 1.17 | mRNA expression level ([1]; cell type #2, HY (hypoxia) 6 hr): 5.52 | mRNA expression level ([1]; cell type #2, HY (hypoxia) 18 hr): 8.15 | mRNA expression level ([1]; cell type #2, NO (normoxia)): 9.63 | mRNA expression level ([1]; cell type #3, HY (hypoxia) 6 hr): 0.87 | mRNA expression level ([1]; cell type #3, HY (hypoxia) 18 hr): 0.56 | mRNA expression level ([1]; cell type #3, NO (normoxia)): 0.56 | mRNA expression level ([1]; cell type #4, HY (hypoxia) 6 hr): 11.5 | mRNA expression level ([1]; cell type #4, HY (hypoxia) 18 hr): 14.2 | mRNA expression level ([1]; cell type #4, NO (normoxia)): 12.8 | mRNA expression level ([1]; cell type #5, HY (hypoxia) 6 hr): 0.15 | mRNA expression level ([1]; cell type #5, NO (normoxia)): 0.12 | mRNA expression level ([1]; cell type #6, HY (hypoxia) 6 hr): 0.14 | mRNA expression level ([1]; cell type #6, NO (normoxia)): 0.11 | gene expression level on custom gene array, Breast nor H [2]: 1.64 | gene expression level on custom gene array, Breast nor K [2]: 1.25 | gene expression level on custom gene array, Breast tum H [2]: 1.89 | gene expression level on custom gene array, Breast tum K [2]: 0.96 | gene expression level on custom gene array, Ovary nor E [2]: 3.17 | gene expression level on custom gene array, Ovary nor F [2]: 3.24 | gene expression level on custom gene array, Ovary nor G [2]: 1.26 | gene expression level on custom gene array, Ovary tum E [2]: 0.93 | gene expression level on custom gene array, Ovary tum F [2]: 0.85 | gene expression level on custom gene array, Ovary tum G [2]: 0.80 | mRNA EXPRESSION (experimental condition) #1 [3, 5]: 0.65 | mRNA EXPRESSION (experimental condition) #2 [3, 5]: 0.68 | mRNA EXPRESSION (experimental condition) #3 [3, 5]: 0.99 | mRNA EXPRESSION (experimental condition) #4 [3, 5]: 1.10 | mRNA EXPRESSION (experimental condition) #5 [3, 5]: 1.62 | mRNA EXPRESSION (experimental condition) #6 [3, 5]: 1.80
